Key:
[1] = biological target: PRMT1 E27 (N-terminal truncation lacking the first 26 amino acids) (UniProt Q99873); test: native gel or EMSA
[2] = biological target: PRMT1 S14 (N-terminal truncation lacking the first 13 amino acids) (UniProt Q99873); test: native gel or EMSA

Substance | stoichiometry N [1] | stoichiometry N [2]
PRMT1 E27 (N-terminal truncation lacking the first 26 amino acids) (from UniProt Q99873-3 27-353) (domain or fragment) | 4 | 
PRMT1 S14 (N-terminal truncation lacking the first 13 amino acids) (from UniProt Q99873-3 14-353) (domain or fragment) |  | 4
